Among the data in PMC5686206 are amplitude a3 (yield) of the slow component (C3) of flash-induced absorption transients and time constant t1 of the fast component (C1) of flash-induced absorption transients values, retold here.

Substrate in this assay: T1, OCP lacking the NTE comprising the first 20 amino acids (ΔNTE), 6xHis-tagged (Synechocystis sp. PCC 6803) (UniProt P74102)
T1 sequence: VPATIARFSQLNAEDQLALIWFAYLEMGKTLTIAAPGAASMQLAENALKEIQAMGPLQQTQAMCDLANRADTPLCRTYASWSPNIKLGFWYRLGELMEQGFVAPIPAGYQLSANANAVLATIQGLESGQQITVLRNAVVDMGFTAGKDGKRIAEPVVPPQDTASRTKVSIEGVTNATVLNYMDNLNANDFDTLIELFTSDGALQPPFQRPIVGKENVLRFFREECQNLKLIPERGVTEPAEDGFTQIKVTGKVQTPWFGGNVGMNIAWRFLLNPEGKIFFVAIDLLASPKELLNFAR

B1: Fluorescence Recovery Protein (FRP), 6xHis-tagged (natural protein)
chain: MLQTAEAPWSQAETQSAHALFRKAYQRELDGLLATVQAQASQITQIDDLWKLHDFLSAKRHEIDGKYDDRQSVIIFVFAQLLKEGLVQAEELTFLAADKQSKIKALARL
For the molecule B1, the amplitude a3 (yield) of the slow component (C3) of flash-induced absorption transients at 550 nm, ΔNTE OCP + FRP (FRP to ΔNTE OCP ratio 1.6), 36 °C was determined as 76% and the time constant t1 of the fast component (C1) of flash-induced absorption transients at 550 nm, ΔNTE OCP + FRP (FRP to ΔNTE OCP ratio 1.6), 36 °C was determined as 70.4 µs.
